In paper PMC11610669, “A Spectroscopic Study on the Amyloid‐β Interaction with Clicked Peptide‐Porphyrin Conjugates: a Vision Toward the Detection of Aβ Peptides in Aqueous Solution” (Chembiochem, 2024):

These binders were tested against T1, Amyloid-β 42 peptide (UniProt P05067 672-713) (assay: grating-coupled interferometry (GCI); Creoptix WAVE; Aβ42 immobilised on a 4PCH chip (1910±40 pg/mm^2); analytes injected as single-cycle 1:2 dilution series in PBS, 0.005 % Tween 20, 1 % DMSO, 0.2 mg/ml BSA; 25 °C; 100 μl/min; mass transport binding model with bulk correction). Conditions: both partners purified.
T1 construct: Amyloid-β peptide 1-42 (Aβ42), the cut product of the amyloid precursor protein; numbers count on: the Aβ peptide; For GCI it was immobilised on a polycarboxylate chip from Na acetate pH 4.5; also called Aβ42; Aβ
T1 sequence (P05067 672-713): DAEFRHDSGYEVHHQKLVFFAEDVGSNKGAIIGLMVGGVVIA

Row | Binder | Kd | koff | kon
1 | Ac-GKPGKLVFF-NH2 (not fully specified (residue 2), designed N-terminal stretch of Ac-GK(N3)PGKLVFF-NH2; the K is the azidolysine that carries the porphyrin; hydrophobic core Aβ16-20 (KLVFF) of amyloid-β; numbers count on: the Aβ peptide; MALDI-TOF (M+H)+ 1876.12; calcd. for C103H121N22O13 1875.24; Structure drawn in Scheme 1 and Scheme 3; source: synthetic peptide (MW-SPPS), clicked on resin to Pra-OMe (CuAAC), porphyrin coupled on resin, cleaved …) [unmetalated porphyrin-peptide conjugate Ph-Pep] | 60 ± 1 µM | 0.0819 s⁻¹ | 1370 M⁻¹ s⁻¹
2 | Ac-GKPGKLVFF-NH2 (not fully specified (residue 2); also: porphyrin as Cu(II) complex, designed N-terminal stretch of Ac-GK(N3)PGKLVFF-NH2; the K is the azidolysine that carries the porphyrin; hydrophobic core Aβ16-20 (KLVFF) of amyloid-β; numbers count on: the Aβ peptide; MALDI-TOF (M+H)+ 1937.73; calcd. for C103H118CuN22O13 1936.77; Structure drawn in Scheme 1; source: synthetic peptide (MW-SPPS), clicked in solution to Cu-Ph-Pra-OMe (CuAAC), purified by preparative HPLC) [copper porphyrin-peptide conjugate Cu-Ph-Pep] | 44 ± 6 µM | 0.0931 s⁻¹ | 2100 M⁻¹ s⁻¹
3 | Ac-GKPGKLVFF-NH2 (not fully specified (residue 2); also: porphyrin as Zn(II) complex, designed N-terminal stretch of Ac-GK(N3)PGKLVFF-NH2; the K is the azidolysine that carries the porphyrin; hydrophobic core Aβ16-20 (KLVFF) of amyloid-β; numbers count on: the Aβ peptide; MALDI-TOF (M+H)+ 1939.43; calcd. for C103H119ZnN22O13 1938.60; Structure drawn in Scheme 1 and Scheme 3; source: synthetic: Ph-Pep metalated with Zn(CH3COO)2, purified by RP-HPLC) [zinc porphyrin-peptide conjugate Zn-Ph-Pep] | 46 ± 6 µM | 0.002 s⁻¹ | 110 M⁻¹ s⁻¹
